Results on 16 molecules are retold here after patent publication US20230250189A1 (HEIDELBERG PHARMA RESEARCH, published 2023).

The chains are these.
B1: 3F11-var 6 (antibody, human IgG1, kappa, V domains shown)
VH: QVQLVQSGAEVKKPGASVKVSCKASGYTFTYFDINWLRQAPGQGLEWMGGISPGDGNTNYAQKFQGRVTLTIDTSTSTAYMELSSLRSEDTAVYYCARDGNFPYYAMDSWGQGTLVTVSS
VL: DIVMTQSPLSLPVTPGEPASISCRSSQSLVHSNGQTYLHWYLQKPGQSPQLLIYTVSNRFSGVPDRFSGSGSGTDFTLKISRVEAEDVGVYYCSQSTHVPTFGGGTKVEIKR
notes: Expressed from pXC-IgG1zadeltaK and pXC-Kappa vectors
B2: 3F11-var 10 (antibody, human IgG1, kappa, V domains shown)
VH: B1 VH
VL: B1 VL with N33S
notes: as for B1
B3: 3F11-var 9 (antibody, human IgG1, kappa, V domains shown)
VH: B1 VH with A61N, Q62E, K63N, Q65K, T74K, Y95F
VL: B1 VL with N33S
notes: as for B1
B4: 3F11-var 11 (antibody, human IgG1, kappa, V domains shown)
VH: B1 VH with T58V
VL: B1 VL with N33S
notes: as for B1
B5: 3F11-var 15 (antibody, human IgG1, kappa, V domains shown)
VH: B1 VH with T58V
VL: B1 VL with N33S, L42Q, F60A, V90T
notes: as for B1
B6: 3F11-var 1 (antibody, human IgG1, kappa, V domains shown)
VH: B1 VH with A61N, Q62E, K63N, Q65K, T74K, Y95F
VL: B1 VL with Q35N, Y41F, Y92F
notes: as for B1
B7: 3F11-var 2 (antibody, human IgG1, kappa, V domains shown)
VH: B1 VH
VL: B1 VL with Q35N, Y41F, Y92F
notes: as for B1
B8: 3F11-var 8 (antibody, human IgG1, kappa, V domains shown)
VH: B1 VH with G56S, T58V
VL: B1 VL
notes: as for B1
B9: 3F11-var 7 (antibody, human IgG1, kappa, V domains shown)
VH: B1 VH with T58V
VL: B1 VL
notes: as for B1
B10: 3F11-var 5 (antibody, human IgG1, kappa, V domains shown)
VH: B1 VH with A61N, Q62E, K63N, Q65K, T74K, Y95F
VL: B1 VL
notes: as for B1
B11: 3F11-var 12 (antibody, human IgG1, kappa, V domains shown)
VH: B1 VH with G56S, T58V
VL: B1 VL with N33S
notes: as for B1
B12: 3F11-var 3 (antibody, human IgG1, kappa, V domains shown)
VH: B1 VH with T58V
VL: B1 VL with Q35N, Y41F, Y92F
notes: as for B1
B13: 3F11-var 4 (antibody, human IgG1, kappa, V domains shown)
VH: B1 VH with G56S, T58V
VL: B1 VL with Q35N, Y41F, Y92F
notes: as for B1
B14: 3F11-var 14 (antibody, human IgG1, kappa, V domains shown)
VH: B1 VH
VL: B1 VL with N33S, L42Q, F60A, V90T
notes: as for B1
B15: 3F11-var 13 (antibody, human IgG1, kappa, V domains shown)
VH: B1 VH with A61N, Q62E, K63N, Q65K, T74K, Y95F
VL: B1 VL with N33S, L42Q, F60A, V90T
notes: as for B1
B16: 3F11-var 16 (antibody, human IgG1, kappa, V domains shown)
VH: B1 VH with G56S, T58V
VL: B1 VL with N33S, L42Q, F60A, V90T
notes: as for B1

Substitutions are numbered along the chain they refer to.

T1 sequence (Q04609 whole entry): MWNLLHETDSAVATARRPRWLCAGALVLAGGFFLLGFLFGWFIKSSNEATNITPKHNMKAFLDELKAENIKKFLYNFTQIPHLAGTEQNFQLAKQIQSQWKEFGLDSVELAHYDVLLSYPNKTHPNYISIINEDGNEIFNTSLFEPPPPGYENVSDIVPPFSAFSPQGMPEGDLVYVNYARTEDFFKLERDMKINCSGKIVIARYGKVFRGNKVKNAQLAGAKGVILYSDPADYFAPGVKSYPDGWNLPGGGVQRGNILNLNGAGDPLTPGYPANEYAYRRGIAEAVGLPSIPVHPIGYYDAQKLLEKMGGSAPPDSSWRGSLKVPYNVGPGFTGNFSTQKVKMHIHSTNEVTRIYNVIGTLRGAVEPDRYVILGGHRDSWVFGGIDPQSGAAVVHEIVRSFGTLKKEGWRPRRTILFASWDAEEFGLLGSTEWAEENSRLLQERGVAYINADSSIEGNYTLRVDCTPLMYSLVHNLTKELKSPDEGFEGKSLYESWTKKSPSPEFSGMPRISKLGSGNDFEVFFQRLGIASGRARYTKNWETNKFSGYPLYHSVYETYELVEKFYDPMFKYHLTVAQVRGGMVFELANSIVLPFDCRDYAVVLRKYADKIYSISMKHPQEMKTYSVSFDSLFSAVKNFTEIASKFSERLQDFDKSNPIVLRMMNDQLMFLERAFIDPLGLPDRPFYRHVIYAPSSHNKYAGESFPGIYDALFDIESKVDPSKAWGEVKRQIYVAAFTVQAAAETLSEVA

One test has as its target T1, Prostate specific membrane antigen (PSMA) (human, UniProt Q04609 1-750).
T1 construct: whole, on cells; The background says that PSMA is a homodimer when enzymatically active; also called glutamate carboxypeptidase II; GCPII
Nature of the test: flow cytometry on LNCAP cells, FITC anti-human IgG. The protocol:
(§1) Pre-confluent LNCAP cells at 80-90% confluence were washed and detached from the plates with trypsin prior to 1-hour incubation at 37° C., 5% CO₂ in the flasks to restore cell surface proteins. Cells were washed and adjusted to 1×10₆ cells/ml in staining media (RPMI-1640, 25 mM HEPES, 3% h.i. FBS and 0.02% sodium azide). Various concentrations of the monoclonal antibody samples (murine wt and 16 humanized variants) ranging from 50 to 0.0032 μg/ml were prepared in staining media and incubated with the cells in pre-cooled 96-well plates for 30 min. on ice to allow antibody binding to the LNCAP cell surface. Subsequently, cells were washed at 4° C. with PBS to remove free antibody, and bound antibody was labelled with FITC goat anti-human IgG H&L preabsorbed (Abcam) secondary antibody for 30 min. on ice. Finally, cells were washed, fixed and FITC fluorescence associated to the antibody bound to the cells was measured by flow cytometry (GUAVA 8HT Cytometer). Data was analyzed using Incyte GuavaSoft 2.7 software (Merck-Millipore). The obtained dose-response data (plotted as log-transformed dose vs. response) typically produced sigmoidal curves with variable slope which were fitted to a 4-parameter logistic dose-response equation using GraphPad Prism software. The EC₅₀ dose, defined as the concentration of antibody that provides half of maximal target cell binding, was used to compare the bioactivity of different antibody variants. Data points represent the average of duplicate wells and standard error of the mean (SEM).
(In general: In flow cytometry, cells or beads pass a laser one at a time.)
B1 displayed an EC50 of 0.219 µg/mL.
Molecule B2 gave an EC50 of 0.284 µg/mL.
B3 registered an EC50 of 0.281 µg/mL.
The same measure, in the same setting: the result for B4 reads 0.339 µg/mL; that for B5, 0.244 µg/mL.
For the molecule B6, the EC50 is 0.29 µg/mL.
On the same count and under the same terms, with B7 the figure was 0.273 µg/mL; with B8, 0.204 µg/mL; with B9, 0.178 µg/mL.
On the same count and under the same terms, the result for B10 reads 0.304 µg/mL; that for B11, 0.329 µg/mL.
Turning to B12, a half-maximal effect (EC50) was put at 0.264 µg/mL.
The same measure, in the same setting: the result for B13 reads 0.373 µg/mL.
For B14, the EC50 turned out to be 0.272 µg/mL.
As for B15, the EC50 amounted to 0.25 µg/mL.
B16 returned an EC50 of 0.248 µg/mL.

The target of a further test is T1, Prostate specific membrane antigen …. Nature of the test: flow cytometry on LNCAP cells, FITC anti-human IgG. This is another data set of the same source. How it is done:
as §1
The molecule B1 gave an EC50 of 0.219 µg/mL.
In the case of B2, a half-maximal effect (EC50) was put at 0.284 µg/mL.
The molecule B3 yielded an EC50 of 0.281 µg/mL.
Molecule B4 gave an EC50 of 0.339 µg/mL.
Take B5: the EC50 was 0.244 µg/mL.
The same measure, in the same setting: with B6 the figure was 0.29 µg/mL; with B7, 0.273 µg/mL.
B8 returned an EC50 of 0.204 µg/mL.
Still for that read-out and setting: with B9 the figure was 0.178 µg/mL.
The same measure, in the same setting: the result for B10 reads 0.304 µg/mL; that for B11, 0.329 µg/mL; that for B12, 0.264 µg/mL.
On the same count and under the same terms, the result for B13 reads 0.373 µg/mL; that for B14, 0.272 µg/mL; that for B15, 0.25 µg/mL.
For the molecule B16, the EC50 is 0.248 µg/mL.

The EC50 is the concentration at which the effect is half-maximal. A lower EC50 goes with greater potency.
